Measurements published in publication PMC3064780 (Nucleic Acids Research, 2010).
Each block holds one molecule with its values, some of them ahead of it.

Legend:
[1] = target: eIF4G_mid (aa 572–853 of eIF4G, middle domain) (yeast) (UniProt P39935); assay: ITC
eIF4A/eIF4G_mid complex [2] = target: T1, eIF4A/eIF4G_mid complex (Saccharomyces cerevisiae, UniProt P10081); assay: ITC or competitive titration; type: binding; details: pH 7.5, 80 mM KCl, Mg2+; eIF4G_mid present
T1 sequence (P10081 1-395): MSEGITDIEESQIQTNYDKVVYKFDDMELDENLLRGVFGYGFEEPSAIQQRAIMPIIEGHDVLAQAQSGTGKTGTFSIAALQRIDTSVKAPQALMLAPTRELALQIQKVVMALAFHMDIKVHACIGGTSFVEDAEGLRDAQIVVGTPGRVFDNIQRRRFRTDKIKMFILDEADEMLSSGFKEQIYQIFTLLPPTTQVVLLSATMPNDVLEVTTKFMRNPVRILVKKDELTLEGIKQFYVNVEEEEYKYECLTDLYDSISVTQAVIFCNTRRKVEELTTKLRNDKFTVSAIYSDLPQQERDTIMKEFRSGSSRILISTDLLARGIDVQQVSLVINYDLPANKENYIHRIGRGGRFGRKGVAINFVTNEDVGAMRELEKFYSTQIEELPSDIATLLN
T1 sequence (P39935 572-853 K590R partner): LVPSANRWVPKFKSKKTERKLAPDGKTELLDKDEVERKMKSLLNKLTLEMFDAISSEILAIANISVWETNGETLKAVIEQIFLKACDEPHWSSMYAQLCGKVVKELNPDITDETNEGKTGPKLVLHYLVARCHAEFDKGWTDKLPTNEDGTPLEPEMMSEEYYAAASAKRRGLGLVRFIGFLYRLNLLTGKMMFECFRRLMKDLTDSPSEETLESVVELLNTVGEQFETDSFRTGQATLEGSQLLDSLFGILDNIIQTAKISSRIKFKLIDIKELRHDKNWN

eIF4A [3] = target: T2, eIF4A (Saccharomyces cerevisiae, UniProt P10081); assay: ITC or competitive titration; type: binding; details: pH 7.5, 80 mM KCl, Mg2+; without eIF4G
T2 sequence (P10081 1-395): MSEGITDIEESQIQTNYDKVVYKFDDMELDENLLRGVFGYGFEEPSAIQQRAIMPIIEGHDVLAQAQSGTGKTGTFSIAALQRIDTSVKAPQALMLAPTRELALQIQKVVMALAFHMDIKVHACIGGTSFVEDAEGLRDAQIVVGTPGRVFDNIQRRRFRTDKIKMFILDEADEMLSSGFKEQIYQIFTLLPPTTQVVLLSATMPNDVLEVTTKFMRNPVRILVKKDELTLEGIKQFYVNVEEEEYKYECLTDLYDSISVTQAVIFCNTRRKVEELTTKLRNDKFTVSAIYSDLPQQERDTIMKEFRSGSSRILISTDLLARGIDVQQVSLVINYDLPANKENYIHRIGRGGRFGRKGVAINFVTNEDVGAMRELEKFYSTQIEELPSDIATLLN

eIF4A/eIF4G_mid complex [4] = target: T1, eIF4A/eIF4G_mid complex; assay: competitive titration of the mantADP/protein complex, or ITC; type: binding; details: pH 7.5, 80 mM KCl, Mg2+; eIF4G_mid present
eIF4A [5] = target: T2, eIF4A; assay: as above; type: binding; details: pH 7.5, 80 mM KCl, Mg2+; without eIF4G
[6] = target: T3, eukaryotic translation initiation factor 4A (eIF4A) (yeast, UniProt P10081 1-395); assay: ITC
T3 sequence (looked up): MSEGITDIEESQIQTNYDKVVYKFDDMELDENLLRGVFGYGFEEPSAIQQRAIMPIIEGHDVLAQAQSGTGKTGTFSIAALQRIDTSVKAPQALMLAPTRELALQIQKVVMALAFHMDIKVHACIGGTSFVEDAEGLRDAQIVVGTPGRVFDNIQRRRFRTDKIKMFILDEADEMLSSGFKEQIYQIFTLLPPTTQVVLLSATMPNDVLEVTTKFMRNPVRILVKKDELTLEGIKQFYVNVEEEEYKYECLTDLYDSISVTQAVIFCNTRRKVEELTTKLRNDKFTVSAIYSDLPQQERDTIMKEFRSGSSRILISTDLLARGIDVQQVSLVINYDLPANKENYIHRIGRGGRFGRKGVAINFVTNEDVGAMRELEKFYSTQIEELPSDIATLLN

eIF4A_E43R = target: T4, eIF4A_E43R (yeast, UniProt P10081 1-395, E43R); assay: ITC
T4 sequence (looked up): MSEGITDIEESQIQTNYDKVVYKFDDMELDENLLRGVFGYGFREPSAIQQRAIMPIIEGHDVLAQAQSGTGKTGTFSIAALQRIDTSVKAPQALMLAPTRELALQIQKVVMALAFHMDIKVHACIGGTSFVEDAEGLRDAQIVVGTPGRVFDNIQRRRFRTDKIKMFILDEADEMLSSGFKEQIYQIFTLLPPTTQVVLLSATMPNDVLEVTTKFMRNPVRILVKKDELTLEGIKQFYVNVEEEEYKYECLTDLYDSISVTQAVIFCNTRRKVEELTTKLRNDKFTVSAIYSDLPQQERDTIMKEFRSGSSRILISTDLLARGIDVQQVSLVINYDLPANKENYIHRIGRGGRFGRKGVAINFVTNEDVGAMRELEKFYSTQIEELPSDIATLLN

Molecule: eIF4A-RecA_C (aa 226-406) (domain or fragment)
- Kd [1]: 1300 nM

Molecule: Nc1ncnc2c1ncn2[C@@H]1O[C@H](COP(=O)(O)OP(=O)(O)OP(=O)(O)O)[C@@H](O)[C@H]1O [ATP]
- Kd (eIF4A/eIF4G_mid complex [2]): the affinity of eIF4A for ADP and ATP is moderately decreased in the presence of eIF4G
- Kd (eIF4A [3]): the affinity of eIF4A for ADP and ATP is moderately decreased in the presence of eIF4G

Molecule: Nc1ncnc2c1ncn2[C@@H]1O[C@H](COP(=O)(O)OP(=O)(O)O)[C@@H](O)[C@H]1O [ADP]
- Kd (eIF4A/eIF4G_mid complex [4]): the affinity of eIF4A for ADP and ATP is moderately decreased in the presence of eIF4G
- Kd (eIF4A [5]): the affinity of eIF4A for ADP and ATP is moderately decreased in the presence of eIF4G

B1: eIF4G_K831E/S834D/R835E (domain or fragment, yeast, UniProt P39935 572-853, looked up)
chain: LVPSANRWVPKFKSKKTERKLAPDGKTELLDKDEVERKMKSLLNKLTLEMFDAISSEILAIANISVWETNGETLKAVIEQIFLKACDEPHWSSMYAQLCGKVVKELNPDITDETNEGKTGPKLVLHYLVARCHAEFDKGWTDKLPTNEDGTPLEPEMMSEEYYAAASAKRRGLGLVRFIGFLYRLNLLTGKMMFECFRRLMKDLTDSPSEETLESVVELLNTVGEQFETDSFRTGQATLEGSQLLDSLFGILDNIIQTAEISDEIKFKLIDIKELRHDKNWN
- Kd [6]: 1100 ± 100 nM

Other lines, results leading:

- Kd [6]: 600 ± 100 nM
- Kd (eIF4A_E43R): 200 ± 20 nM
B2: eIF4G_mid (aa 572–853 of eIF4G, middle domain) (domain or fragment, yeast, UniProt P39935 572-853, looked up)
chain: LVPSANRWVPKFKSKKTERKLAPDGKTELLDKDEVERKMKSLLNKLTLEMFDAISSEILAIANISVWETNGETLKAVIEQIFLKACDEPHWSSMYAQLCGKVVKELNPDITDETNEGKTGPKLVLHYLVARCHAEFDKGWTDKLPTNEDGTPLEPEMMSEEYYAAASAKRRGLGLVRFIGFLYRLNLLTGKMMFECFRRLMKDLTDSPSEETLESVVELLNTVGEQFETDSFRTGQATLEGSQLLDSLFGILDNIIQTAKISSRIKFKLIDIKELRHDKNWN

- Kd [6]: 1000 ± 100 nM
B3: eIF4G_R835E (domain or fragment, yeast, UniProt P39935 572-853, looked up)
chain: LVPSANRWVPKFKSKKTERKLAPDGKTELLDKDEVERKMKSLLNKLTLEMFDAISSEILAIANISVWETNGETLKAVIEQIFLKACDEPHWSSMYAQLCGKVVKELNPDITDETNEGKTGPKLVLHYLVARCHAEFDKGWTDKLPTNEDGTPLEPEMMSEEYYAAASAKRRGLGLVRFIGFLYRLNLLTGKMMFECFRRLMKDLTDSPSEETLESVVELLNTVGEQFETDSFRTGQATLEGSQLLDSLFGILDNIIQTAKISSEIKFKLIDIKELRHDKNWN
